From patent US20230002480A1

Assays:
Assay in all cases: cell-based or functional assay
[1] = target: HIV-1 Env of pseudovirus 1054_07_TC4_1499 (HIV-1)
[2] = target: HIV-1 Env of pseudovirus 1056_10_TA11_1826 (HIV-1)
[3] = target: HIV-1 Env of pseudovirus 246F C1G (HIV-1)
[4] = target: HIV-1 Env of pseudovirus 249M B10 (HIV-1)
[5] = target: HIV-1 Env of pseudovirus 62357_14_D3_4589 (HIV-1)
[6] = target: HIV-1 Env of pseudovirus 6535.3 (HIV-1)
[7] = target: HIV-1 Env of pseudovirus 7030102001E5(Rev-) (HIV-1)
[8] = target: HIV-1 Env of pseudovirus CAAN5342.A2 (HIV-1)
[9] = target: HIV-1 Env of pseudovirus CAP210.2.00.E8 (HIV-1)
[10] = target: HIV-1 Env of pseudovirus CNE58 (HIV-1)
[11] = target: HIV-1 Env of pseudovirus Ce0393_C3 (HIV-1)
[12] = target: HIV-1 Env of pseudovirus Ce0682_E4 (HIV-1)
[13] = target: HIV-1 Env of pseudovirus Ce703010054_2A2 (HIV-1)
[14] = target: HIV-1 Env of pseudovirus Ce704809221_1B3 (HIV-1)
[15] = target: HIV-1 Env of pseudovirus Du172.17 (HIV-1)
[16] = target: HIV-1 Env of pseudovirus HIV-001428-2.42 (HIV-1)
[17] = target: HIV-1 Env of pseudovirus HIV-16055-2.3 (HIV-1)
[18] = target: HIV-1 Env of pseudovirus Q259.d2.17 (HIV-1)
[19] = target: HIV-1 Env of pseudovirus Q842.d12 (HIV-1)
[20] = target: HIV-1 Env of pseudovirus REJO4541.67 (HIV-1)
[21] = target: HIV-1 Env of pseudovirus ZM233M.PB6 (HIV-1)

Question: Which IC50 [1] does the source give for N49P9.1 (antibody) here?
Answer: 1.8 µg/mL

Question: What about the IC80 [1] of the same substance?
Answer: 7.2 µg/mL

Question: And the MPI [1]?
Answer: 100

Question: And the IC50 [2]?
Answer: 0.617 µg/mL

Question: What about the IC80 [2] of the same substance?
Answer: 3.03 µg/mL

Question: And the MPI [2]?
Answer: 100

Question: And the IC50 [3]?
Answer: > 50 µg/mL

Question: What about the IC80 [3] of the same substance?
Answer: > 50 µg/mL

Question: And the MPI [3]?
Answer: 11

Question: And the IC50 [4]?
Answer: 0.305 µg/mL

Question: What about the IC80 [4] of the same substance?
Answer: 1.64 µg/mL

Question: And the MPI [4]?
Answer: 96

Question: And the IC50 [5]?
Answer: 0.227 µg/mL

Question: What about the IC80 [5] of the same substance?
Answer: 1.09 µg/mL

Question: What about the MPI [5] of the same substance?
Answer: 99

Question: What about the IC50 [6] of the same substance?
Answer: 0.232 µg/mL

Question: And the IC80 [6]?
Answer: 2.06 µg/mL

Question: What about the MPI [6] of the same substance?
Answer: 100

Question: And the IC50 [7]?
Answer: 0.635 µg/mL

Question: What about the IC80 [7] of the same substance?
Answer: 2.02 µg/mL

Question: What about the MPI [7] of the same substance?
Answer: 100

Question: And the IC50 [8]?
Answer: 2.16 µg/mL

Question: And the IC80 [8]?
Answer: 8 µg/mL

Question: What about the MPI [8] of the same substance?
Answer: 99

Question: What about the IC50 [9] of the same substance?
Answer: > 50 µg/mL

Question: What about the IC80 [9] of the same substance?
Answer: > 50 µg/mL

Question: And the MPI [9]?
Answer: 2

Question: And the IC50 [10]?
Answer: 0.027 µg/mL

Question: And the IC80 [10]?
Answer: 0.074 µg/mL

Question: What about the MPI [10] of the same substance?
Answer: 100

Question: What about the IC50 [11] of the same substance?
Answer: 0.284 µg/mL

Question: And the IC80 [11]?
Answer: 1.22 µg/mL

Question: And the MPI [11]?
Answer: 100

Question: And the IC50 [12]?
Answer: 0.076 µg/mL

Question: And the IC80 [12]?
Answer: 0.264 µg/mL

Question: And the MPI [12]?
Answer: 100

Question: What about the IC50 [13] of the same substance?
Answer: 0.433 µg/mL

Question: What about the IC80 [13] of the same substance?
Answer: 3.18 µg/mL

Question: What about the MPI [13] of the same substance?
Answer: 96

Question: What about the IC50 [14] of the same substance?
Answer: 0.162 µg/mL

Question: What about the IC80 [14] of the same substance?
Answer: 0.661 µg/mL

Question: What about the MPI [14] of the same substance?
Answer: 100

Question: What about the IC50 [15] of the same substance?
Answer: 0.026 µg/mL

Question: What about the IC80 [15] of the same substance?
Answer: 0.182 µg/mL

Question: What about the MPI [15] of the same substance?
Answer: 100

Question: And the IC50 [16]?
Answer: 0.037 µg/mL

Question: What about the IC80 [16] of the same substance?
Answer: 0.12 µg/mL

Question: And the MPI [16]?
Answer: 99

Question: What about the IC50 [17] of the same substance?
Answer: 0.102 µg/mL

Question: What about the IC80 [17] of the same substance?
Answer: 0.362 µg/mL

Question: And the MPI [17]?
Answer: 100

Question: What about the IC50 [18] of the same substance?
Answer: > 50 µg/mL

Question: What about the IC80 [18] of the same substance?
Answer: > 50 µg/mL

Question: And the MPI [18]?
Answer: 48

Question: And the IC50 [19]?
Answer: 0.027 µg/mL

Question: What about the IC80 [19] of the same substance?
Answer: 0.075 µg/mL

Question: And the MPI [19]?
Answer: 100

Question: What about the IC50 [20] of the same substance?
Answer: 0.064 µg/mL

Question: And the IC80 [20]?
Answer: 0.231 µg/mL

Question: What about the MPI [20] of the same substance?
Answer: 100

Question: And the IC50 [21]?
Answer: > 50 µg/mL

Question: And the IC80 [21]?
Answer: > 50 µg/mL

Question: And the MPI [21]?
Answer: 6
